From patent EP4803151A2 (Lepu Biopharma Co., Ltd., dated 2026)

T1: mouse DLL3 his tag protein (KACTUS, Cat. No. DLL-MM103) (mouse, UniProt O88516 33-490, limits assumed)
T1 construct: Bought protein; also called mDLL3-his; mouse DLL3 protein; not shown: his tag
T1 sequence (looked up): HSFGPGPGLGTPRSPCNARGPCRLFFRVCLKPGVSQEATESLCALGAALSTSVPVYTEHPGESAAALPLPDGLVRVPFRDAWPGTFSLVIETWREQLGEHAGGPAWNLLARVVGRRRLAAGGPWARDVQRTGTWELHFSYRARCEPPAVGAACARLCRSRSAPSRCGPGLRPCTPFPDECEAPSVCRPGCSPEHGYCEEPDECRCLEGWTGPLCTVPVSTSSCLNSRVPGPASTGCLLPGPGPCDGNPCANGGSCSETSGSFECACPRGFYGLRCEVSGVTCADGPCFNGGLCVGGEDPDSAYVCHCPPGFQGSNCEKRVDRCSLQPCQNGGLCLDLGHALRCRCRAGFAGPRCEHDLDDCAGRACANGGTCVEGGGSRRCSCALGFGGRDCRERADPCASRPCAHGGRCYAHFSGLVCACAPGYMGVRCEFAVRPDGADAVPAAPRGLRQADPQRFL

T2: ECD of human DLL3 over-expressed on HEK293 cells (human, UniProt Q9NYJ7 27-492)
T2 construct: extracellular domain; also called HEK293-hDLL3; human DLL3 expressed on HEK293 cells
T2 sequence (looked up): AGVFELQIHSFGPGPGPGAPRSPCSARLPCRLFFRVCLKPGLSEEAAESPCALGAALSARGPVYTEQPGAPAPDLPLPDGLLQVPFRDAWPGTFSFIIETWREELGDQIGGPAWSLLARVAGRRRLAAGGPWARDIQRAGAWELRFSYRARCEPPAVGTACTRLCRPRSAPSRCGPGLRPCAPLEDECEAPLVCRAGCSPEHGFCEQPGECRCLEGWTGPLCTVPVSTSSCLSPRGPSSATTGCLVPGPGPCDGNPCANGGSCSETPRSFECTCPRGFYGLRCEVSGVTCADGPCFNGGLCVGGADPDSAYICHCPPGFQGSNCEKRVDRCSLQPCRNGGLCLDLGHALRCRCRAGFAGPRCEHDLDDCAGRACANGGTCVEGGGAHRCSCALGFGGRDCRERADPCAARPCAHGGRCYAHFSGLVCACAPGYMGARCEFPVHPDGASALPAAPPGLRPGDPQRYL

T3: human full length DLL1 expressed on CHO-K1 cells (human, UniProt O00548 18-723)
T3 construct: whole, on cells; also called CHO-K1-hDLL1
T3 sequence (looked up): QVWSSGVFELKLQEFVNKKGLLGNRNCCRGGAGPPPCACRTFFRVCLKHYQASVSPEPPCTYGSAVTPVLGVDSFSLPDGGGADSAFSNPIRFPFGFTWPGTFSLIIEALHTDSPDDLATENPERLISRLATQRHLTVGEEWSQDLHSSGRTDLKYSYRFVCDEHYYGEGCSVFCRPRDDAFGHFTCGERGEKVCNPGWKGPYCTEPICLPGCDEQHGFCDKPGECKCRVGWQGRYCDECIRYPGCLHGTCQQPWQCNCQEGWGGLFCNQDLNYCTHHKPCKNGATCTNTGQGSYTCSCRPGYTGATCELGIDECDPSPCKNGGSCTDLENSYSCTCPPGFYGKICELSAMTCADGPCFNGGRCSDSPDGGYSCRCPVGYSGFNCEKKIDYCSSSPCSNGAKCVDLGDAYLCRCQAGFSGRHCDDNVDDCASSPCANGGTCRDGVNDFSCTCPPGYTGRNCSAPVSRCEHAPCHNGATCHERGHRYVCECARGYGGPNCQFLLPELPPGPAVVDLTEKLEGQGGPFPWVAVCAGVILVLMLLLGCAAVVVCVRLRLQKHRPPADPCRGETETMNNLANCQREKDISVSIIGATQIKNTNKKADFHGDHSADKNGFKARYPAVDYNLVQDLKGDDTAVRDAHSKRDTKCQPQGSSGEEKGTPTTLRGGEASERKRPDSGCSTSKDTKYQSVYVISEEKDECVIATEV

T4: ECD of human DLL3 protein fused with his tag (Acro Bio, Cat. No. DL3-H52H4) (human, UniProt Q9NYJ7 27-492)
T4 construct: range 27-492; Bought protein; also called hDLL3-his; human DLL3-his protein; not shown: his tag
T4 sequence (looked up): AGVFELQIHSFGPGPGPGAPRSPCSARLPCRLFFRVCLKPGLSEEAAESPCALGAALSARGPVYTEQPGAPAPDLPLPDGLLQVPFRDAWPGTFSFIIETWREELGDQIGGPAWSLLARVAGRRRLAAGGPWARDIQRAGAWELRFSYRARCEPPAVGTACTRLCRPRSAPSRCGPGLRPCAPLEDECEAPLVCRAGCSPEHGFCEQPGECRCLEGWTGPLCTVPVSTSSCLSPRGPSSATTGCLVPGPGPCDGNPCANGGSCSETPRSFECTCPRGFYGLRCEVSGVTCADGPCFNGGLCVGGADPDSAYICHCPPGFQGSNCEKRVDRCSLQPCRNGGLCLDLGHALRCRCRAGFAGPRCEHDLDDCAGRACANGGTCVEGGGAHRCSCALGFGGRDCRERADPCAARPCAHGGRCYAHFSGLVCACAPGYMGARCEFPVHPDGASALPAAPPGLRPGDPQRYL

T5: human DLL1 his tag fusion protein (Sino Biological, Cat. No. 11635-H08H) (human, UniProt O00548 18-540)
T5 construct: Bought protein; also called hDLL1-his; hDLL1 protein; not shown: his tag
T5 sequence (looked up): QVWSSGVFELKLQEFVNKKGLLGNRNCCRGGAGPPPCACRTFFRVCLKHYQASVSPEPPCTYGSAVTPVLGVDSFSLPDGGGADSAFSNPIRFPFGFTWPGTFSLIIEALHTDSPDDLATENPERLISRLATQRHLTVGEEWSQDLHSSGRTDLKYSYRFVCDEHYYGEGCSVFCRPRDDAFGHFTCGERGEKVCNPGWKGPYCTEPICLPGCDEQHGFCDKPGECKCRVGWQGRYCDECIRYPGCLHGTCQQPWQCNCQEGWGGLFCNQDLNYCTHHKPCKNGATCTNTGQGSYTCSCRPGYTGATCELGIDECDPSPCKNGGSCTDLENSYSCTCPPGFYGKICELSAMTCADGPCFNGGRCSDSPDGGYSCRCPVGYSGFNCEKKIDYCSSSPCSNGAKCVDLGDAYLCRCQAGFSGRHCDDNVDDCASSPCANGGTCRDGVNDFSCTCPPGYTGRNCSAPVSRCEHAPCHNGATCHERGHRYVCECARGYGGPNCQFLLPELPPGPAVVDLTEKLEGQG

T6: human DLL3 endogenously expressed on SCLC tumor cell lines SHP77 and NCI-H82 (human, UniProt Q9NYJ7 27-618)
T6 construct: whole, on cells; also called human DLL3 expressed on tumor cells
T6 sequence (looked up): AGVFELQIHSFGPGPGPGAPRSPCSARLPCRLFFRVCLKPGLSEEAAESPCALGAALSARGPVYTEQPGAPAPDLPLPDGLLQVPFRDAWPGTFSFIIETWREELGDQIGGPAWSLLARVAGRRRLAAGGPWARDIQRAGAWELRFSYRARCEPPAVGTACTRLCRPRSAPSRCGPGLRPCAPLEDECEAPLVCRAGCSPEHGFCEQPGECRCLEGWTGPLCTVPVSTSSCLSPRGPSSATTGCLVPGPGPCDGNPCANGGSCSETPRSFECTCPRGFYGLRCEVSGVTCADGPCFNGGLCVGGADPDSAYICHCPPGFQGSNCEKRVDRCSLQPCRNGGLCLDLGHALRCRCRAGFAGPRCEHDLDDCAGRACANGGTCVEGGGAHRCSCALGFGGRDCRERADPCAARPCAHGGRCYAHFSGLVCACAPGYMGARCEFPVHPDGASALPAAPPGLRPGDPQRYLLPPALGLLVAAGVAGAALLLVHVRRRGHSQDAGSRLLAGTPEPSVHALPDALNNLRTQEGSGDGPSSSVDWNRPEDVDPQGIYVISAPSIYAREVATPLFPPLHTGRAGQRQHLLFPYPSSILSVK

B1: 129H2B9-hIgG1 chimeric antibody (antibody, V domains shown)
VH: EVNLEESGGGLVQPGGSMKLSCVVSGFTFSNYWMSWVRQSPEKGLEWVAEIRLKSDNYATHYAESVKGKFTISRDDSKSRLYLQMNSLRPEDTGIYYCTSNRFAYWGQGTLVTVSA
VL: NIVMTQSPKSVSMSVGERVTLSCKASENVGTYVYWYQQKPEQSPKMMIYGASNRYTGVPDRFTGSGSATDFTLTIRSVQAEDLADYHCGQSYSYPFTFGSGTKLEIKR
B2: 310P3C5-z15p21 PTM removed humanized antibody (antibody, V domains shown)
VH: QVQLVQSGAEVKKPGASVKVSCKASGYTFTDFYMNWVKQAPGQGLEWIGDANPNYGGTTHNPRFKGRATLTVDKSASTAYMELRSLRSEDTAVYYCARGGLPGDFDYWGQGTTVTVSS
VL: DIQMTQSPSSLSASVGDRVTITCKASEDIYNRLAWYQQKPGKAPKLLISGVTSLETGVPSRFSGSGSGTDFTFTISSLQPEDIATYYCQQYWSFPWTFGGGTKVEIK
notes: variable regions fused to the constant region of human IgG1
B3: 310P3C5-z8 humanized antibody (antibody, human IgG1, kappa, V domains shown)
VH: QVQLVQSGAEVKKPGASVKVSCKASGYTFTDFYMNWVRQAPGQGLEWIGDANPNNGGTTHNPRFKGQATLTVDKSTSTAYMELRSLRSDDTAVYYCARGGLPGDFDYWGQGTTVTVSS
VL: DIQMTQSPSSVSASVGDRVTITCKASEDIYNRLAWYQQKPGKAPKLLISGVTSLETGVPSRFSGSGSGTDFTLTISSLQPEDFATYYCQQYWSFPWTFGGGTKVEIKR
notes: HU-VH1-4 with HU-VL1-2; human IgG1
B4: 310P3C5-z12 humanized antibody (antibody, human IgG1, kappa, V domains shown)
VH: QVQLVQSGAEVKKPGASVKVSCKASGYTFTDFYMNWVRQAPGQGLEWIGDANPNNGGTTHNPRFKGQATLTVDKSTSTAYMELRSLRSDDTAVYYCARGGLPGDFDYWGQGTTVTVSS
VL: DIQMTQSPSSVSASVGDRVTITCKASEDIYNRLAWYQQKPGKAPKLLISGVTSLETGVPSRFSGSGSGKDFTLTISSLQPEDFATYYCQQYWSFPWTFGGGTKVEIKR
notes: HU-VH1-4 with HU-VL1-3; human IgG1
B5: 310P3C5-z4 humanized antibody (antibody, human IgG1, kappa, V domains shown)
VH: QVQLVQSGAEVKKPGASVKVSCKASGYTFTDFYMNWVRQAPGQGLEWIGDANPNNGGTTHNPRFKGQATLTVDKSTSTAYMELRSLRSDDTAVYYCARGGLPGDFDYWGQGTTVTVSS
VL: DIQMTQSPSSVSASVGDRVTITCKASEDIYNRLAWYQQKPGKAPKLLIYGVTSLETGVPSRFSGSGSGTDFTLTISSLQPEDFATYYCQQYWSFPWTFGGGTKVEIKR
notes: HU-VH1-4 with HU-VL1-1; human IgG1
B6: 310P3C5-z15 humanized antibody (antibody, human IgG1, kappa, V domains shown)
VH: QVQLVQSGAEVKKPGASVKVSCKASGYTFTDFYMNWVKQAPGQGLEWIGDANPNNGGTTHNPRFKGRATLTVDKSASTAYMELRSLRSEDTAVYYCARGGLPGDFDYWGQGTTVTVSS
VL: DIQMTQSPSSLSASVGDRVTITCKASEDIYNRLAWYQQKPGKAPKLLISGVTSLETGVPSRFSGSGSGTDFTFTISSLQPEDIATYYCQQYWSFPWTFGGGTKVEIKR
notes: human IgG1
B7: 310P3C5-z14 humanized antibody (antibody, human IgG1, kappa, V domains shown)
VH: QVQLVQSGAEVKKPGASVKVSCKASGYTFTDFYMNWVKQAPGQGLEWIGDANPNNGGTTHNPRFKGRATLTVDKSASTAYMELRSLRSEDTAVYYCARGGLPGDFDYWGQGTTVTVSS
VL: DIQMTQSPSSVSASVGDRVTITCKASEDIYNRLAWYQQKPGKAPKLLIYGVTSLETGVPSRFSGSGSGTDFTLTISSLQPEDFATYYCQQYWSFPWTFGGGTKVEIKR
notes: HU-VH2 with HU-VL1-1; human IgG1

Assays:
[1] = target: T1, mouse DLL3 his tag protein (KACTUS, …); experiment: ELISA, mDLL3-his coated at 1 ug/mL
[2] = target: T2, ECD of human DLL3 over-expressed on …; experiment: flow cytometry on HEK293-hDLL3 cells
[3] = target: T7, human DLL4 his tag fusion protein (Sino Biological, Cat. No. 10171-H08H) (human, UniProt Q9NR61 27-524); experiment: ELISA, hDLL4-his coated at 1 ug/mL
T7 construct: Bought protein; also called hDLL4-his; hDLL4 protein; not shown: his tag
T7 sequence (Q9NR61 27-524 limits assumed): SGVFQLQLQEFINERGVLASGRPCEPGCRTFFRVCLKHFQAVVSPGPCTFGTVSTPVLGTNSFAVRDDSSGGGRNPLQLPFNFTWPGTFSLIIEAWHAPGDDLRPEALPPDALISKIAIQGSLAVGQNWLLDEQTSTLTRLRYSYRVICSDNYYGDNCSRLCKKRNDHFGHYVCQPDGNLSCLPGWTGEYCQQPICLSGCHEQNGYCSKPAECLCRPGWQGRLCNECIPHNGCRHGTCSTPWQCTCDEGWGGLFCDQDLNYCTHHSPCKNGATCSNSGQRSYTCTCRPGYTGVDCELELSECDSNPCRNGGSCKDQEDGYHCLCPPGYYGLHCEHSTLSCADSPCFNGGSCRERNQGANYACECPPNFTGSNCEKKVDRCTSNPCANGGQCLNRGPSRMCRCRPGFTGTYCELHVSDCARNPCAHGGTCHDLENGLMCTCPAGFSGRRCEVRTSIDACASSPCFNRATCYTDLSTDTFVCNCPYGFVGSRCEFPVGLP

[4] = target: T3, human full length DLL1 expressed on …; experiment: flow cytometry on CHO-K1-hDLL1 cells
[5] = target: T4, ECD of human DLL3 protein fused with …; experiment: SPR, Biacore 8K, antibody captured on Protein A chip, single dose of human DLL3-his
[6] = target: T5, human DLL1 his tag fusion protein (Sino …); experiment: ELISA, hDLL1-his coated at 1 ug/mL
[7] = target: T6, human DLL3 endogenously expressed on …; experiment: flow cytometry on SHP77 cells
[8] = target: T8, human full length DLL4 expressed on CHO-K1 cells (human, UniProt Q9NR61 27-685); experiment: flow cytometry on CHO-K1-hDLL4 cells
T8 construct: whole, on cells; also called CHO-K1-hDLL4
T8 sequence (Q9NR61 27-685): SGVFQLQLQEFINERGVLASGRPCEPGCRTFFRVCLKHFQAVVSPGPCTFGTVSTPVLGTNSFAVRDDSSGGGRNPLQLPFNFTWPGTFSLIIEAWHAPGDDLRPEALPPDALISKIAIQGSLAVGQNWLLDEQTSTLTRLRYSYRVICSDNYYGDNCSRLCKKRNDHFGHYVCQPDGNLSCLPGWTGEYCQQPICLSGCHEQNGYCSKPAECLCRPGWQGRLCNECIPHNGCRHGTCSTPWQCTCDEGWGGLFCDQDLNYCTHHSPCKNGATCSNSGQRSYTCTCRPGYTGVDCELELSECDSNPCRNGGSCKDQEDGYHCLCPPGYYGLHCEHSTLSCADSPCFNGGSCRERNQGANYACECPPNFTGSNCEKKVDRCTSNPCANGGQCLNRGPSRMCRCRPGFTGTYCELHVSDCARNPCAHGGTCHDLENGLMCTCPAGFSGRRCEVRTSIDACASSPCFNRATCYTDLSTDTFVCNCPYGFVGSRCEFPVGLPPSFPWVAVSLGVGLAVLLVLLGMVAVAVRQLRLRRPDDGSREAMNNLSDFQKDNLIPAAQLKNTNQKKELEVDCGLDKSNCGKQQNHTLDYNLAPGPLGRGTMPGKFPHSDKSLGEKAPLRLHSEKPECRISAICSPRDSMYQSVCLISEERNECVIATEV

[9] = target: T6, human DLL3 endogenously expressed on …; experiment: flow cytometry on SHP77 and NCI-H82 cells
[10] = target: T4, ECD of human DLL3 protein fused with …; experiment: ELISA, hDLL3-his coated

| Binder | binding result [1] | binding result [2] | binding result [3] | binding result [4] | binding result [5] | binding result [6] | binding result [7] | binding result [8] | binding result [9] | binding result [10] |
| --- | --- | --- | --- | --- | --- | --- | --- | --- | --- | --- |
| B1 | binds | binds | no binding (tested: up to 100 nM) | no binding (tested: highest dose level 100 nM) | binds | no binding (tested: up to 100 nM) |  |  |  |  |
| B2 |  | binds |  |  |  |  | binds |  |  |  |
| B3 |  | binds |  | no binding |  |  |  | no binding | binds | binds |
| B4 |  | binds |  | no binding |  |  |  | no binding | binds | binds |
| B5 |  | binds |  | no binding |  |  |  | no binding | binds | binds |
| B6 |  | binds |  | no binding |  |  |  | no binding | binds | binds |
| B7 |  | binds |  | no binding |  |  |  | no binding | binds | binds |
